# Results taken from the RNAGym collection of RNA variant scans (doi:10.1073/pnas.2313332121).
# Fewer inactive variants are shown than the library holds.
# B1: TPR 5TU (parent)
# chain: GGAUCUUCUCGAUCUAACAAAAAAGACAAAUCUGCCACAAAGCUUGAGAGCAUCUUCGGAUGCAGAGGCGGCAGCCUUCGGUGGCGCGAUAGCGCCAACGUUCUCAACUAUGACACGCAAAACGCGUGCUCCGUUGAAUGGAGUUUAUCAUG
# Variants of: B1
# Assay: polymerase ribozyme fitness, log enrichment relative to wild type (log ratio); higher = more active; in vitro selection for triplet polymerase activity
# How it was run: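 Fitness is a logarithmic measure of how a genotype enriched relative to the wild type, with replicate averages weighted by inverse variance. The logarithm uses base 2, and enrichment came from Illumina sequencing of input and output libraries. Those libraries were PCR-built, transcribed mutants of each subunit of a heterodimeric triplet polymerase ribozyme, passed through one triplicate in vitro selection round that included frozen incubation at −7 °C, gel excision of extended constructs and streptavidin-bead capture. Genotypes were kept only if they had ≥10 input reads and ≥1 read per output.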
row,Variant,polymerase ribozyme fitness (log ratio)
1,GGAUGUUCUCGAUCUAACAAAAAAGACAAAUCUGCCACAAAGCUUUAGAGCAUCUUCGGAUGCAGAGGCGGCAGCCUUCGUUGGCGUAAUAGCGCCAUCGUUCUCAACUAUGACACGCAAAACGUGUGCUCCGUUGAAUGGAGUUUAUCAUG,≤ -4.2
2,GGAUCUUCUCGAUCUAACAAAAAAGACAAAUCUGCCACAAAGCUUGAGAGCAUCUUCGGAUGCAGAGGCGGCAGCCUUCGGUGGCGCGAUACCGCCAACGUUCUCAACUAUGACACGCAAAACGCGUGCUCCGUUGAAAGGAGUUUAUCAUG,-4.2
3,GGAUCUUCUCGAUCUAACAAAAAAGACAAAUCUGCCACAAAGCUUGAGAGCAUCUUCGGAUGCAGAGGCGGCAGCCUUCGGUAGUGCGAUAGCGCCAACGUUCUCAACUAUGACUUGCAAAACGCGUGCUCCGUUGAAUGGAGUUUAUCAUG,-2.68
4,GGAUCGUCUCGAUCUAACAAAAAAGACAAAUCUCCCACAAAGCUUGAGAGCUUCUUCGGAUGCAGAGGCGGCAGCCUUCGGUGGCGCGGUAGAGCCAACGUUCUCAUCUAUGACUCGCAAAACGCGUGCUCCGUUGAAUGGAGUUUAUCCUG,≤ -4.2
5,GGAUCUUCUCGAACUAACAAAAAAGACAAAUCUGCCACAAAGCUUGAGAGCAUCUUCGGAUGCAGAGGCGGCAGCCUUCGGUGGCGCGAUGGCGCCAACGUUCUCAACUAUGAUACGCAGAACGCGUGCUCCGUUGAAUGGAGUUUAUCAUG,-4.09
6,GGAUCUUCUCGAUCUAACAAAAAAGACAAAUCUGCCACAAAGCUUGAGAGCAUCUUCGGAUGCAGAGGCGGCAGCCUUCGGUGGUGCGAUAGCGCCAACGUUCUCAACUAUGACACGCAAAACGCGUGCUCCGAUGAAUGGAGUUUAUCAUG,-3.04
7,GGAUCUUCUCGAUCUAACAAAAAAGACAAAUCUGCCACAAAGCUUGAGAGCAUCUACGGAUGCAGAGGCGGCAGGCUUCGGUGGCGCGAUAGAGCCAGCGUUCUCCACUAUGACACGCAAAACGCGUGCUCCGUUGAAUGAAGUUUAUCAUG,≤ -4.2
8,GGAUCUUCUCGAUCUAACAAAAAAGACAAAUCUGCCACAAAGCGUGAGAGCAUCUUCGGAUGCAGAGGCGGCAGCCUUCGGUGGCGCCAUAGCGCCAACGUUCUCAAGUAUGACACGCAAAACGCGUGCUCCGUUGAAUGGAGCUUAUUAUG,≤ -4.2
9,GGAUCUUCUCGAUCUAACAAUAAAGACAAAUCUGCAACAAAGCUUGAGAGCAUCUUCGGAUGCAGAGGCGGCAGCCUUCAGUGGCGCAAUAGCGCCAACUUUCUCAACUAUGACACGCAAAACCCGUGCUCCAUUGAAUGGACUUUAACAUG,≤ -4.2
10,GGAUCUUCUCGAUCUAACAAAAAAGACAAAUCUGCCACAAAGCUUGAGAGCAUCUUCGGAUGCAGAGGCGGCAGCCUUCGGUGGCGCGAUAGCGCUAACGUUCUCAACUAUGACACGCAAAACGCGUGCUCCGUUGAAUGAAGUUUAUCAUG,0.0586
11,GGAUCUUCUCGAUCUAACAAAAAAGACAAAUCUGCCACAAAGCUUGAGAGCAUCUUCGGAUGCAGAGGCGGCAGCCUUCGGUGGCGCGAUAGCGCCAACGUUCUCAACUAUGACACGCAAUACGCGUGCUCUGUUGAAUGGAGUUAAUCAUG,-0.968
12,GGAUCUUCUCGAUUUCACAAAAAAGACAAAUCUGCCACAAAGCUUGAGAGUGUCUUCGGAUGCAGAGGCGGCAGCCUUCGGUGGCGCGAUAGUGCCAACGUUCUCAACUAUGACAAGCAACACGCGUGCUCCGUUGAAUGGAGUUUAUCAUG,-1.81
13,GGAUCUUCUCGAUCUAACAAAAAAGACUAAUCUGCCACAAAGCUUGAGAGCAUCUUCGGAUGCAGAGUCGGCAGCCUUCGGUGGCGCGAUAGCGCCAAUGUUCUCAACUGUGACACGCAAAACGCGUGCUCCGUUGAAUGGAGUUUAUCAUG,≤ -4.2
14,GGAUCUUCUGGAUCUAACAAAAAAGACAAAUCUGCCACAAAGCGUGAGCGCCUCUUCGGAUGCCGAGGCGGCACCCUUCGGUGGCGCGAUAGCGCCAACGUUCGCAACUAUGACACGCAAAGCGCGUGCUCCGUUGAAUGAAGUUUAUCAUG,≤ -4.2
15,GGAUCUUCUCGAUCUAACAAAAAAGACAAAUCUGCCACAAAGCUUGUGAGCAUCUUCGGAUGCAGAGUCGGCAGCCUUCGGUGGCGCGAUAGCGCCAACGUUCUCAACUAUGACACGCAAAACGCGUGCUCCGUUGAAUGGAGUUUAUCAUG,≤ -4.2
16,GGAUCAUCUCGAUCUAACAAAAAUGACAAAUCUGCCACAAAGCUUGAGAGCAUCUUCGGAUGCAGAGGCGGCAGCCUUCGUUGGGGCGAUAGCGCCAACGUUCUCAACUAUGACACGCAAAACGCGUGCUCCGUUGAAUUGAGUUUAUCAUG,≤ -4.2
17,GGAUCUUCUCGAUCUAACAAAAAAGACAAAUCUGCCACAAAGCUUGAGAGCAUCAUCGGAUGCAGAGGCGGCAGCCUUCGGUGGCGCGAUAGCGCCAACGUUCUCAACUAUGACACGCAAAACUCGUGCUCCGUUGAAUGGAGUUUAUCAUG,-2
18,GGAUCUUCUCGAUCUAACAAAAAAGACAAAUCUGCCACAAAGCUUGAGAGCAUCUUCGGAUGCAGAGGCGGCAGCCUUCGGUGGCGCGAUAGCGCGAUCGUUGUCAACUAUGCCACGCAAAACGCGUGCUCCGUUGAAUGGAAUUUAUCAUG,≤ -4.2
19,GGAUCUUCUCGAUCUAACUAAAAAGACAAAUCUGCCACAAAGCUUGAGAGCUUCUUCGGAUGCAGAGGCGGCAGCCUUCGGUGGCGCGAUAGCGCCGACGUUCUCAACUAUGACACGCAAAACGCGUGCUCCGUUGAAUGGAGUUUAUCAUG,-2.59

row,Variant,polymerase ribozyme fitness (log ratio)
1,GGAUCUUCUCGAUCUAACAAAAAAGCCAAAUCUGCCAUAAAGCUUGAGAGCAUCUUCGGAUGCAGAGGCGGCAGCCUUCGGUGGCUCGAUAGCGCCAACGUUCUCAACUAUGACACGCAAAACGCGUGCUCCGUUGAAUGGAGGUUAUCAUG,-3.75
2,GGAUCUUCUCGAUCUAACAAAAAAGACAAAUCUGCCAUAAAGCUUGAGAACUUCUUCGGAUGCAGAGUCGGCAGCCUUCAGUGGCGCGAUAGCGCCGACGUUCUCAACUAUGACACGCAAAACGCGUGCUCCGUUGUAUGGAGUUUAUCAUG,≤ -4.2
3,GGAUCUUCUCGAUCUAUCAAAAAAGACAAAUCUGCCACAAAGCUUGAGAGCAUCUUGGGAUGCAGAGGCGGCAGCCUUCGGUGGCGCGAUAGCGCCAACGUUCUCAACUAUGACACGCAAAACGCGUGCUCCGUUGAAUGGAGUUUAUCAUG,-0.677
4,GGAUCUUCUCGGUUUAACAAAAAAGACAAAUCUGCCACAAAGCUUGAGAGCAUCUUCGGAUGCAGAGGCGGCAGCCUUCGGUGGCGCGAUAGCGCCAACGUUCUCAACUAUGACACGCAAAACGCGUGCUCCGUUGAAUGGAGUUUAUCAUG,-0.925
5,GGAUCUUCUCGAUCUAACAAAAAAGACAAAACUGCCACAAAGCUUGAGAGCAUCUUCGGAUGCAGAGGCGGCAGCCUUCGGUGGAGCGAUAGCGCCAACGUUCUCAACUAUGACACGCAAAACGCGUGCUCCGUUGAAUGGAGUUUAUCAUG,-0.724
6,GGAUCUUCUCGAUCUAUCAAAAAAGACAAAUCUGCCACAAAGCUUGAGAGCACCUUCGGAUGCAGAGGCGGCAGCCUUCGGUGGCGCGAUAACGCCAACGUUCUCAACUAUGACACGCAAAACGCGUGGUCCGUUGAAUGGAGUUUAUCAUG,≤ -4.2
7,GGAUCUUCUCGAUAUAACAAAAAAGACAAAUCUGCCACAAAGCUUGAGAGCAUCUUCGGAUGCUGAGGCGGCAGCCUUCGGUGGCGCGAUAGUGCCAACGUUCUCAACUAUGACACGCAAAACGCGUGCUCCGUUGAAUGAAGUUUAUCAUG,≤ -4.2
8,GGAUCUUCUCGAUCUAACAAAAAAGACAAAUCUGCCACAAAGCUUGAGAGCAUCUUCGGAUGCAGAGGCGGCAGCCUUCGGUAGCUCGAUAGCGCCAACGUUCUCAACUAUGACACGUAAAACGCGUGCUCCGUUGAAUGGAGUUUAUCAUG,-3.81
9,GGAUCUUCUCGAUCUAACAAAAAAGACAAAUCUGCCACACAGCUUGAGUGCAUCUUAGGAUGCAGAGGCGGCAGCAUUCGGCGGCGCGAUAGCUCCAACGUUCUCAACUAUGACACGCAAAACGCGUGCUCCGUUGAAUGGAGUUUAUCAUG,≤ -4.2
10,GGAUCUUCUCGAUCUAACAAAAAAGACAAAUCUGCCACAAAGCUUGAGAGCAUCUUCGGAUGCAGAGGCGGCAGCCUUCAGUGGCGCGAUAGCGCCAACGUUCUCAACUAUGAUACGCAAAACGCGUGCUCCGUUGCAUGGAGUUUAUCAUG,-3.92
11,GGAUCUUCUCUAUCUAACAAAAAAGACAAAUCUGCCACAAAGCUUGAGAGCGUCUUCGGGUGCAGAGGCGGCAGCCUUCGGUUGCGCGAUAGCGCCAACGUUCUCAACUAUGACACGCAAAACGCGUGCUCCGUUGAAUGGAGUUUAUCAUG,-3.33
12,GGAUCUUCUCGAUCUAACAAAAAAGACAAAUCUGCCACAAAGCUUGAGAGCAUCUUCGGAUGCAGAGGCGGCAGCCUUCGGUGGCGCGAUAGCGCCAACGUUCUCAACUAUGACAUGCAAAACGCGUGCUCCGUUGAAUGGAGUUCAUCAUG,-0.11
13,GGAUGUUCUCGAUCUAACAAAAAAGACAAAUCUGUCACAAAGCUUGAGAACAUCAUAGGAUGCAGCGGCGGCAGCCUUCGGUGGCGAGAUAGCGCCAACGUUCUCAACUAUGACACGCAAAACGCGUGCUCCGCUGAAUGGAGUUUAUCAUG,≤ -4.2
14,GGAUCUUCUCGAUCUAACAAAAAAGCGAAAUCUGCCACAAAGCUUGAGAGGAUCUUCGGAUGCAGAGGCGGCAGCCUUCGGUCGCGCGCUAGCGCCAACGUUCUCAACUAUGACACGCAAAACGCGUGCUCCGUUGAGUGGUGUUUAUCAUG,≤ -4.2
15,GGAUCUUCUCGAUCUAACAAAAAAGACAAAUCUGCCACAAAGCUUGAGAGCAUCGUCGGAUGCAGAGGCGGCUGCCUUCGGUGGCGCGAUAGCGCCAACGUUCUCAACUAUGACACGCAAAACGCGUGCUCCGUUGAAUGGAGUUUAUCAUG,-2.35
16,GGAUCUUCUCGAUCUAACAAAAAAGACAAAUCUGCCACAAAGCUUGAGAGCGUCUUCGGAUGCAGAGGCGGCAGCCUUCGGUGACGCGAUAGCGCCAACGUUCUCAACUAUGACACGUAAAAGGCGUGCUCCGUUGAAUGGAGUUUAUCAUG,-1.29
17,GGAUCUUAUCGAUCUAACAAACAAGAUAAAUCUGCCACAAAGCCUGAGAGUAUCUUCGGAUGCAGAGGCGGCAGCCUUAGGUGGCGCGAUAGGGGCAACGUUCUGAACUAUGACACGCAAAACGCGUGCUCCGUUGAAUGGAGUUUAUCAUG,≤ -4.2
18,GGAUCUUCUCGAUGUAACAAAAAAGACAAAUCUGCCACAAAGCUUGAGAGCAUCUUCGGAUGCAGAGGCGGCAGCCUUCGGUUGCGCGAUAGCGCCAACGUUCUCAACUAUGACACGCAAAACGCGUGCUCCGUUGAAUGGAGUUUAUCAUG,-2.05
19,GGAUCUUCUCGGUCUAACAAAAAUGACAAAUCUGCCACAAAGCUUGAGAGCAUCUUCGGAUGCAGAGGCGGCAGCCUUCGGUGGCGUGAUAGCGCCAACGUUCUCAACUAUGACACGCAAAACGCGUGCUCCGUUGAAUGGAGUUUAUCAUG,0.648
